Experimental data as given in patent publication US20250197461A1, “Insect-derived short peptide for improving abscisic acid (ABA) content in cruciferous plant” (Gannan Normal University, priority 2023, published 2025).

How the values were obtained:
[1] = target: T1, zeaxanthin epoxidase aba1 (Arabidopsis thaliana, UniProt Q9FGC7); assay: Yeast two-hybrid interaction of GSS1 and its variants with aba1; format: binding; conditions: Y2HGold yeast, TDO/QDO with x-α-gal
T1 construct: expressed in transfected cells; host or cells: Y2HGold yeast (Saccharomyces cerevisiae)
T1 sequence (Q9FGC7 60-667): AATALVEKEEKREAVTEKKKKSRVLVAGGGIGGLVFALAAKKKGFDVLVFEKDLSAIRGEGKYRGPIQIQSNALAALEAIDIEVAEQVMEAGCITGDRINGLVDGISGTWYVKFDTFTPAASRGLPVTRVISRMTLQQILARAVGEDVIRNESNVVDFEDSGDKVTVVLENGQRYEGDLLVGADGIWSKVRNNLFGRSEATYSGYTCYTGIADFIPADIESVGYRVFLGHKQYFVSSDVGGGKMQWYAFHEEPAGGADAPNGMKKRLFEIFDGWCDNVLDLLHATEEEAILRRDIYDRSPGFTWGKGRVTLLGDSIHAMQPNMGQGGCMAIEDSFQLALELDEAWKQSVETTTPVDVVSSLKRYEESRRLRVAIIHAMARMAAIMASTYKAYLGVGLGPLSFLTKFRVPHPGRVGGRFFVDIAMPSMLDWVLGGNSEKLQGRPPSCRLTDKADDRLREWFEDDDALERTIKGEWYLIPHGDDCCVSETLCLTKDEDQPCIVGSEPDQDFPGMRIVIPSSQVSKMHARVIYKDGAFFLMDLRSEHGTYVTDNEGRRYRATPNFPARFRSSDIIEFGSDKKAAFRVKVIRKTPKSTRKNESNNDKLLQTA
Description: A Y2HGold yeast transformant containing the correct pGBKT7-GSS1 bait plasmid was used as a recipient strain to prepare competent cells, and a library plasmid extracted from the yeast library was transferred into the competent cells, and coated on the SD-Trp-Leu-His+5 mM3AT plate. […]

[2] = test system: Plutella xylostella larvae; assay: Plutella xylostella larvae fed on Arabidopsis thaliana treated with short peptide; format: in vivo; conditions: third-instar larvae fed on treated Arabidopsis thaliana for 3 days
Description: (5) Biological Experimental Observation after GSS-PI Short Peptide Treatment with Arabidopsis thaliana. • 1) 60 newly molted third-instar larvae fed on artificial feed were divided into 3 groups, and 20 larvae in each group were fed on Arabidopsis thaliana plants treated with GSS-P1 short peptide or GFP control short peptide; • 2) In order to prevent plants from being damaged mechanically or influenced by external factors, a simple interactive biological observation device for insect-plant interaction was used to eliminate potential interference factors; • 3) After 3 days, the simple interactive biological observation device was opened, and the number of larvae (4th instar larvae) was observed and counted, the number of larvae surviving was recorded, and divided by the initial number of 20 larvae to obtain the daily survival rate of larvae.

## PDYKQKLRDSKAWESLETIGIPLDADVM (insect-derived short peptide) [GSS1-PI]
[1]
  interaction with aba1 (yeast two-hybrid): interacted with aba1
[2]
  mortality rate of larvae: about 70%
